How the values were obtained:
Assay in all cases: Kinase Profiling Assay
Assay type in all cases: biochemical
Conditions in all cases: for % activity: 100 μM
IGF-1R(h), activated = IGF-1R(h), activated (Homo sapiens, UniProt P08069)
EphA8(h) = biological target: T1, EphA8(h) (Homo sapiens, UniProt P29322)
T1 sequence (P29322 28-1005): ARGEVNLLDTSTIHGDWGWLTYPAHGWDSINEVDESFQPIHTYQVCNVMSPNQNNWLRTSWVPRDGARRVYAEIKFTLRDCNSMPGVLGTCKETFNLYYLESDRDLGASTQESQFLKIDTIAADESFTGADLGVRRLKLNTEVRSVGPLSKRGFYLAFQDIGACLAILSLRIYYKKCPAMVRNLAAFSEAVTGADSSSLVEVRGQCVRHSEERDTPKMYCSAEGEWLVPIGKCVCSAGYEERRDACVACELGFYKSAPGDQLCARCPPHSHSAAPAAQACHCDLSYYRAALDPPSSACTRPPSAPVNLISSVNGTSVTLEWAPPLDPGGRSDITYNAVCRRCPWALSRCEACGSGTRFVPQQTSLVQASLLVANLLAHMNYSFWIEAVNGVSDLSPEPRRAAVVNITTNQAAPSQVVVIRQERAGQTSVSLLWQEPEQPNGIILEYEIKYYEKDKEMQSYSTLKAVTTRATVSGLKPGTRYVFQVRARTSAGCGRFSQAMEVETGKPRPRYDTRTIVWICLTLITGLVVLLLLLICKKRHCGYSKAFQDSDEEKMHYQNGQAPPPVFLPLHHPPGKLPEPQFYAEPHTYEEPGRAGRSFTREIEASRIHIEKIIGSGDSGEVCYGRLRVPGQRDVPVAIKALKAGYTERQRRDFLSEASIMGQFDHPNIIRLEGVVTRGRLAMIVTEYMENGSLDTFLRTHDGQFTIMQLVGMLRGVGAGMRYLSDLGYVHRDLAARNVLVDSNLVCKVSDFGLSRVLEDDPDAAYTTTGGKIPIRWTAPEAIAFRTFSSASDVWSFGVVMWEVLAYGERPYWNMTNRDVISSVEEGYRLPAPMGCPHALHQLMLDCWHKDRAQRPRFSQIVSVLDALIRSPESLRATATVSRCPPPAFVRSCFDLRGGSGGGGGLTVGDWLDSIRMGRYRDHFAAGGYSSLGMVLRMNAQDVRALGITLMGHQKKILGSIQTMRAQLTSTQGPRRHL

EGFR(L858R)(h) = EGFR(L858R)(h) (Homo sapiens, UniProt P00533, L858R)
PAK2(h) = PAK2(h) (Homo sapiens, UniProt Q13177)
ZAP-70(h) = biological target: T2, ZAP-70(h) (Homo sapiens, UniProt P43403)
T2 sequence (P43403 1-619): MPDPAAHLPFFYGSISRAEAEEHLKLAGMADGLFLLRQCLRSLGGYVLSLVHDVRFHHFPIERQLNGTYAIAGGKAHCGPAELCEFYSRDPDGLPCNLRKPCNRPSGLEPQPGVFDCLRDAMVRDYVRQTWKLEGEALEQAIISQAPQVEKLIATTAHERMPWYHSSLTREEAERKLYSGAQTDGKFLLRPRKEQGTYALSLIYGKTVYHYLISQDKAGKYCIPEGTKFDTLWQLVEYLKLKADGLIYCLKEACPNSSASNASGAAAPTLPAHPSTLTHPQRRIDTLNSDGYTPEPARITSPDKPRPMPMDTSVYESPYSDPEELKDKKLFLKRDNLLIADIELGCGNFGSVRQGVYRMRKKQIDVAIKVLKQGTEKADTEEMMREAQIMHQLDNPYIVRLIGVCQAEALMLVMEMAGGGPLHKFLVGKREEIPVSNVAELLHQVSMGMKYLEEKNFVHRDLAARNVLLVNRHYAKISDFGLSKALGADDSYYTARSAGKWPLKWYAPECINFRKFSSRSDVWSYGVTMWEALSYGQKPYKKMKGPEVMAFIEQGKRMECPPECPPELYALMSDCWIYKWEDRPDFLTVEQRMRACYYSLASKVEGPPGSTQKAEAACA

MLK1(h) = MLK1(h) (Homo sapiens, UniProt P80192)
CSK(h) = CSK(h) (Homo sapiens, UniProt P41240)
WNK3(h) = WNK3(h) (Homo sapiens, UniProt Q9BYP7)
CHK2(R145W)(h) = CHK2(R145W)(h) (Homo sapiens, UniProt O96017, R145W)
Txk(h) = biological target: T3, Txk(h) (Homo sapiens, UniProt P42681)
T3 sequence (P42681 1-527): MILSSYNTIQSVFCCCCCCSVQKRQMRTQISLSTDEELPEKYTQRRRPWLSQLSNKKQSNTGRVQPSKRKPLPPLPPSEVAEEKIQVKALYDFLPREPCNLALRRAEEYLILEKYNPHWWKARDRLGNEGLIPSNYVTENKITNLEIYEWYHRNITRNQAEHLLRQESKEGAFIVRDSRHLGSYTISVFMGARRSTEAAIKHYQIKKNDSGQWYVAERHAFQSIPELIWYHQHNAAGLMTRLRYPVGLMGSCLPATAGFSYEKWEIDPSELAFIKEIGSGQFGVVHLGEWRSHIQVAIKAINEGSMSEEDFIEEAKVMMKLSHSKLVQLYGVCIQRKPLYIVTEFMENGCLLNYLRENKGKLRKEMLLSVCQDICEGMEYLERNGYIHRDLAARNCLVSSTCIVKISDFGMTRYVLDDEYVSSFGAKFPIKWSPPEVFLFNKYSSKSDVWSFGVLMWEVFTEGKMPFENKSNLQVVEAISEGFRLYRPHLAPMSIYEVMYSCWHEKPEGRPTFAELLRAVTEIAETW

CHK2(R145W)(h), sequence (O96017 whole entry R145W): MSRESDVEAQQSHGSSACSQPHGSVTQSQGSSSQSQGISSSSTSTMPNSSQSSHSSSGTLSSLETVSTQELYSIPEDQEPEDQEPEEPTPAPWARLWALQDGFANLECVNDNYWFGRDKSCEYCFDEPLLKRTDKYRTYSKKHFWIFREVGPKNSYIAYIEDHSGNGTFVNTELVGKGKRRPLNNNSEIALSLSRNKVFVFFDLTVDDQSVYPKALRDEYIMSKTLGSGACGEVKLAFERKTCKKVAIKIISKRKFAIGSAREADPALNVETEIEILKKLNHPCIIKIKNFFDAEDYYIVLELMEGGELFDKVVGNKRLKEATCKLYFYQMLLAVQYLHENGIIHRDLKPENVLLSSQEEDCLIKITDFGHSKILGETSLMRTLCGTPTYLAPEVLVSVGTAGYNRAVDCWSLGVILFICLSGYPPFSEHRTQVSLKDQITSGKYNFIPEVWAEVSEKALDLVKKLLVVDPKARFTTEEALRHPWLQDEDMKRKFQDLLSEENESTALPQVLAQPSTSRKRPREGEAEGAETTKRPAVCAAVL
MLK1(h), sequence (P80192 whole entry): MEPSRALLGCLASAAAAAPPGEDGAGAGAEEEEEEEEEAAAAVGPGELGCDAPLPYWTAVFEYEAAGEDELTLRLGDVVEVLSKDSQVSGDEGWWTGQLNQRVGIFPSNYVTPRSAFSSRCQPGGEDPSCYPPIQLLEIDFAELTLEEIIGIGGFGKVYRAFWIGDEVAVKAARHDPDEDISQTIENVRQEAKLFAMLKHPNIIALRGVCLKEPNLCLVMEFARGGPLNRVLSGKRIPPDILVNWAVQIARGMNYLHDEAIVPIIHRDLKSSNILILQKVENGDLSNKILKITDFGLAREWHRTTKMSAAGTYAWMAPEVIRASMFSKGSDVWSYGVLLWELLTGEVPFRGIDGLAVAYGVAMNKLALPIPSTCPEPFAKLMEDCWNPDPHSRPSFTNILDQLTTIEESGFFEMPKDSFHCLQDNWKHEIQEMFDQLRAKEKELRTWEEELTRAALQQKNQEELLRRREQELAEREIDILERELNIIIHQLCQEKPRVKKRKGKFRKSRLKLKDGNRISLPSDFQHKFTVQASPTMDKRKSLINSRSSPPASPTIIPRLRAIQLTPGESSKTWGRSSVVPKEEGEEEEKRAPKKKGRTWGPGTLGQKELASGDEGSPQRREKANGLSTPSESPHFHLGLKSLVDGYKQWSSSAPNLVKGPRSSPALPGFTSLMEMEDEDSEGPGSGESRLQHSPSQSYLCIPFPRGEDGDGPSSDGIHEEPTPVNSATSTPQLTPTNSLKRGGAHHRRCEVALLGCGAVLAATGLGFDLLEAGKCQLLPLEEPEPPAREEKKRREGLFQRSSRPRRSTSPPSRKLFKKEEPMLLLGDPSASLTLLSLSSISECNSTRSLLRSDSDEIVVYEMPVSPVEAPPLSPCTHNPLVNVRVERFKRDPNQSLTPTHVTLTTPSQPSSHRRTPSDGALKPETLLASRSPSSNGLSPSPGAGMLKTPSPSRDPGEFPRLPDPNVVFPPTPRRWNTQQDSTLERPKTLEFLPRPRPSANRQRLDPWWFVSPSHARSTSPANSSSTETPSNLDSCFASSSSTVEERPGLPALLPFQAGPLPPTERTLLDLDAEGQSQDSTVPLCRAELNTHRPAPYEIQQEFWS
WNK3(h), sequence (Q9BYP7 whole entry): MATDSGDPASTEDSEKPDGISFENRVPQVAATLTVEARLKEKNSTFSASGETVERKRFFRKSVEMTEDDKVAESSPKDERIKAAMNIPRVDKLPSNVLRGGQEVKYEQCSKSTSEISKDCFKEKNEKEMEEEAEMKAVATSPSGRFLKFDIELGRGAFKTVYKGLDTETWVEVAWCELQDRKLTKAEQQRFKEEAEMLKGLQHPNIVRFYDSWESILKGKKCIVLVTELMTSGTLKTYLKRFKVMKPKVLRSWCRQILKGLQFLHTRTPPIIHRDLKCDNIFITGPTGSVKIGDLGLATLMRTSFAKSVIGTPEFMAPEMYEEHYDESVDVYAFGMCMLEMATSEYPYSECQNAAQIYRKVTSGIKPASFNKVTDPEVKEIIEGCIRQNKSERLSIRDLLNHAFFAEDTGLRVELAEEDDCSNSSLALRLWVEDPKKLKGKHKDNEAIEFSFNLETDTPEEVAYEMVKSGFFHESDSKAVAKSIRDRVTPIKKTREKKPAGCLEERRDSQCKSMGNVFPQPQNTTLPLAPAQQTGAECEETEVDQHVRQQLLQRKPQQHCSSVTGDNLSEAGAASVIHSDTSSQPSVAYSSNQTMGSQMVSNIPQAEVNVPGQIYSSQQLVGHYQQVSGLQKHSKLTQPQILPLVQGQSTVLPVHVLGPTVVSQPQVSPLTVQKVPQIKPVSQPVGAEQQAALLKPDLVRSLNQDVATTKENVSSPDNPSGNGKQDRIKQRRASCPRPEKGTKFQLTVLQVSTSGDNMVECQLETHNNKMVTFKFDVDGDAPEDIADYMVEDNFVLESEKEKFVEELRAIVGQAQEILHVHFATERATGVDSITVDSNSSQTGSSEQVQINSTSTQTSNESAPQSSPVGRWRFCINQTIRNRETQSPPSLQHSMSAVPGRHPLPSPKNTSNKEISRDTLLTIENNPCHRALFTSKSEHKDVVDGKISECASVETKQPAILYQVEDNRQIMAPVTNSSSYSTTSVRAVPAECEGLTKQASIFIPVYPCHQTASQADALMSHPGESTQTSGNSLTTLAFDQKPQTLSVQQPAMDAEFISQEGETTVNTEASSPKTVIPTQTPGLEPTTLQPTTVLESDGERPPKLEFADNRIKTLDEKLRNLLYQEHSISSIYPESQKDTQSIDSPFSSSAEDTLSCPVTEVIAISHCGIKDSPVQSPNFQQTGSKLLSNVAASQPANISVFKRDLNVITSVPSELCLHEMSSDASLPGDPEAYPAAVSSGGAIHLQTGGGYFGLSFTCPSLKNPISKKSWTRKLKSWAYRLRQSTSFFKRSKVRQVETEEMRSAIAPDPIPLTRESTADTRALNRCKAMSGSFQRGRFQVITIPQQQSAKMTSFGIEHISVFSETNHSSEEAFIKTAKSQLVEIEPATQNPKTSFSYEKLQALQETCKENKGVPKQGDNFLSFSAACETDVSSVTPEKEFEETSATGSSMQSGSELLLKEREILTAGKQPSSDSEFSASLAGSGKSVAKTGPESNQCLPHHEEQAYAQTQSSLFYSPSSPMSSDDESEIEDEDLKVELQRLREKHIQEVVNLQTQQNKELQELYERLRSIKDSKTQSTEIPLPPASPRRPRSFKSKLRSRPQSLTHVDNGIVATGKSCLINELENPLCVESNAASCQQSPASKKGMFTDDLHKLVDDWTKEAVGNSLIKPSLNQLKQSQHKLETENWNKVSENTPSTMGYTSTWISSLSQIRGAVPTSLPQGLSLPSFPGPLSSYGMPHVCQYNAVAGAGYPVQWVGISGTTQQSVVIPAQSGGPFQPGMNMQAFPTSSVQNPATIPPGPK
PAK2(h), sequence (Q13177 whole entry): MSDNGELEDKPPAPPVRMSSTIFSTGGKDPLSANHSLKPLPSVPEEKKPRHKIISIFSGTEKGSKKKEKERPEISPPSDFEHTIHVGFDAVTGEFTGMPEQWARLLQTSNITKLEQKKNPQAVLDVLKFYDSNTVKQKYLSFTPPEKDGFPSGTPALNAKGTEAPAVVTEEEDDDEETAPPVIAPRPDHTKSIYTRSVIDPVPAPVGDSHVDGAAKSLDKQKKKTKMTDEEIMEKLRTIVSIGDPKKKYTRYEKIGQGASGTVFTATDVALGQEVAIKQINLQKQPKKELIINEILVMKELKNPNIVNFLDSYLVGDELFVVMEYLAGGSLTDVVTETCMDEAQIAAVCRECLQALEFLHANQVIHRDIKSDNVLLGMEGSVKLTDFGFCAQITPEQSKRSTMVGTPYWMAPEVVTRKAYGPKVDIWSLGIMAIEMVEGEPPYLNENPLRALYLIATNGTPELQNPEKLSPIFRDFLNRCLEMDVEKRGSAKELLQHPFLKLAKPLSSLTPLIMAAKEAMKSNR
CSK(h), sequence (P41240 whole entry): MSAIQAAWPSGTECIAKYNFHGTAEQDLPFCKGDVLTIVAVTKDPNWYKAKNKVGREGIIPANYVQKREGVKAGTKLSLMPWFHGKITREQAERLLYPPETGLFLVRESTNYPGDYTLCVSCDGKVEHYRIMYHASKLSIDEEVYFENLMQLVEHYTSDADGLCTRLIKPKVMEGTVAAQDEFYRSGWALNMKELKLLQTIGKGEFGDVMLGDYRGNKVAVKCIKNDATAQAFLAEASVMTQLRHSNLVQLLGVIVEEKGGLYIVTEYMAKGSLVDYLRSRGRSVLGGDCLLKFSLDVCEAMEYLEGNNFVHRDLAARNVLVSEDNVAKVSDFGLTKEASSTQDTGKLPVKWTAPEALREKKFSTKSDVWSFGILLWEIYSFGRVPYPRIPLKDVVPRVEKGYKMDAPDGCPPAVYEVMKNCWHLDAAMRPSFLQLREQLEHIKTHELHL

Substance | activity at 100 µM (IGF-1R(h), activated) [%] | activity at 100 µM (EphA8(h)) [%] | activity at 100 µM (EGFR(L858R)(h)) [%] | activity at 100 µM (PAK2(h)) [%] | activity at 100 µM (ZAP-70(h)) [%] | activity at 100 µM (MLK1(h)) [%] | activity at 100 µM (CSK(h)) [%] | activity at 100 µM (WNK3(h)) [%] | activity at 100 µM (CHK2(R145W)(h)) [%] | activity at 100 µM (Txk(h)) [%] | % activity (IGF-1R(h), activated) [%] | % activity (EphA8(h)) [%] | % activity (EGFR(L858R)(h)) [%] | % activity (PAK2(h)) [%] | % activity (ZAP-70(h)) [%] | % activity (MLK1(h)) [%] | % activity (CSK(h)) [%] | % activity (WNK3(h)) [%] | % activity (CHK2(R145W)(h)) [%] | % activity (Txk(h)) [%]
H-YARAAARQARAKALARQLGVAA-OH [MMI-0100] | 126 | 181 | 76 | 71 | 79 | 77 | 70 | 100 | 97 | 87 | – | – | – | – | – | – | – | – | – | –
HRRIKAWLKKIKALARQLGVAA (Mammalian) [MMI-0500] | – | – | – | – | – | – | – | – | – | – | 45 | 337 | 26 | 44 | 1 | 43 | 2 | 9 | 3 | 10
YARAAARQARAKALNRQLGVA (Mammalian) [MMI-0200] | – | – | – | – | – | – | – | – | – | – | 94 | 133 | 120 | 69 | 58 | 84 | 33 | 97 | 81 | 98
